Laboratory results as given in patent US8986655B2, “Compositions, devices, and methods related to prostate-specific membrane antigen” (The Regents of the University of California, priority 2009, dated 2015).
Each block holds one sequence with its values, some of them ahead of it.

What was measured:
homodimeric PSMA = homodimeric PSMA (Homo sapiens, UniProt Q04609); experiment: Phage-based ELISA, binding to PSMA dimer; conditions: for binding to PSMA dimer: phage-displayed peptide, 1 μg/mL PSMA dimer, ELISA (FIG. 5); for relative binding affinity to PSMA compared with parent peptide 2: 1 μg/mL homodimeric PSMA, half of the binding time (FIG. 1A)
Excerpt: (§1) An eight residue long peptide with the amino acid sequence […] [SEQ ID NO: 1], was previously identified as a PSMA binder from an 8-mer (X8) library. […] (also referred to as peptide 1 in the Figures) to PSMA as reported previously. In addition to […] [SEQ ID NO: 1], the inventors also examined a longer 13-mer peptide, selected from a disulfide-constrained library with the amino acid sequence […] [SEQ ID NO: 3] (also referred to as peptide 2 in the Figures).
The five peptides [SEQ ID NOs: 4-8] […] These peptides were assayed for binding to 1 μg/mL of homodimeric PSMA, a concentration 10-fold less than the parent peptide required for binding assays. This higher stringency can better distinguish very high from moderate affinity binders. […] FIG. 1A illustrated peptides selected from homolog shotgun scanning library. FIG. 1B illustrates relative affinity of selected peptide 3 [SEQ ID NO: 4] versus the previous highest affinity peptide 1 [SEQ ID NO: 2]. FIG. 1C illustrates a bar graph showing that 20 nM phage displaying peptide 1 [SEQ ID NO: 2] has binding affinity similar to that of 0.2 nM phage displaying peptide 3 [SEQ ID NO: 4], and 20 nM phage displaying parent peptide 2 [SEQ ID NO: 3] has binding affinity similar to 0.02 nM phage displaying peptide 3 [SEQ ID NO: 4].
A phage-based ELISA was performed using purified peptide 10 to determine whether the peptide enhances the binding to immobilized PSMA. […] Here, the graph illustrates results for the phage displaying peptide 3 [SEQ ID NO.4], wrapped with peptide 10 binding 1 μg/mL PSMA dimer

PSMA monomer = PSMA monomer (Homo sapiens, UniProt Q04609); experiment: Phage-displayed ELISA, binding to PSMA monomer; conditions: phage-displayed peptide, 1 μg/mL PSMA monomer, ELISA (FIG. 5)
Excerpt: as §1

PSMA = PSMA (Homo sapiens, UniProt Q04609); conditions: phage-displayed ELISAs, QCM, EIS; as reported previously; cited from earlier work
[1] = biological target: transferrin receptor (TfR) (Homo sapiens, UniProt P02786); experiment: Cross-reactivity for binding transferrin receptor; conditions: homolog of PSMA (54% sequence identical)
Excerpt: It should be noted that the two substitutions incorporated in the sequence of peptide 3 [SEQ ID NO: 4] were L1S and D2E. The serine substitution removes a hydrophobic leucine residue, which provides the peptide with a more polar side chain, which can accept and donate hydrogen bonds (H-bonds). The hydroxyl group likely improves the surface complementarity at the binding interface with PSMA by creating new H-bonding contacts with the protein backbone, or by participating in an extended H-bonding network directly or indirectly through water to other side chains at the binding site. The selection of Glu in place of Asp merely extends the side chain length by one carbon unit. This substitution maintains contribution of the carboxylate functionality, and the length extension of 1.5 Å could allow for new H-bonding or salt-bridging opportunities. Clearly, the core sequence of the selected peptides is critical for the molecular recognition of PSMA, and this core remained conserved in the tightest binding peptides.

[2] = phage-based ELISA with 20 nM phage, phage concentration versus HRP activity (FIGS. 1B, 1C)

homodimeric PSMA, sequence (Q04609 whole entry): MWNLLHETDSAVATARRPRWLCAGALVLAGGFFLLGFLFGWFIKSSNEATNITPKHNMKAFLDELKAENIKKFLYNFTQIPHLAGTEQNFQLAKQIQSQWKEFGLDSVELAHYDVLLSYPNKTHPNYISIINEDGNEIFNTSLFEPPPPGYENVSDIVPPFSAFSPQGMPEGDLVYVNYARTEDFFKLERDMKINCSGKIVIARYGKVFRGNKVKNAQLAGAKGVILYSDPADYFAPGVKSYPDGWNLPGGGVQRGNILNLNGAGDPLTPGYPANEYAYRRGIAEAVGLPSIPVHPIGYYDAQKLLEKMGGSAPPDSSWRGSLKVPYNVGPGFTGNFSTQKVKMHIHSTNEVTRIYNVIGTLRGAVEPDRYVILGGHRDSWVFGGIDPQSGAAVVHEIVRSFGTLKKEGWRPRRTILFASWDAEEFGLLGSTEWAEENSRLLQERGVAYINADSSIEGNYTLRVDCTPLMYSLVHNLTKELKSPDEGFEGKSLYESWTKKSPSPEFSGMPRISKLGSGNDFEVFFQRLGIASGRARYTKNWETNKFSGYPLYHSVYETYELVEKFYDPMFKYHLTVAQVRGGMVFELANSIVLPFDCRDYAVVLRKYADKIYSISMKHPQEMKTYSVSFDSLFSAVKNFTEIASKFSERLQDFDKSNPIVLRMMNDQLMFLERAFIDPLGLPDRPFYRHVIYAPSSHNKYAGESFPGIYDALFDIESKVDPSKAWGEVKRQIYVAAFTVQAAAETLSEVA
PSMA monomer, sequence (Q04609 whole entry): as above
transferrin receptor (TfR), sequence (P02786 whole entry, species assumed): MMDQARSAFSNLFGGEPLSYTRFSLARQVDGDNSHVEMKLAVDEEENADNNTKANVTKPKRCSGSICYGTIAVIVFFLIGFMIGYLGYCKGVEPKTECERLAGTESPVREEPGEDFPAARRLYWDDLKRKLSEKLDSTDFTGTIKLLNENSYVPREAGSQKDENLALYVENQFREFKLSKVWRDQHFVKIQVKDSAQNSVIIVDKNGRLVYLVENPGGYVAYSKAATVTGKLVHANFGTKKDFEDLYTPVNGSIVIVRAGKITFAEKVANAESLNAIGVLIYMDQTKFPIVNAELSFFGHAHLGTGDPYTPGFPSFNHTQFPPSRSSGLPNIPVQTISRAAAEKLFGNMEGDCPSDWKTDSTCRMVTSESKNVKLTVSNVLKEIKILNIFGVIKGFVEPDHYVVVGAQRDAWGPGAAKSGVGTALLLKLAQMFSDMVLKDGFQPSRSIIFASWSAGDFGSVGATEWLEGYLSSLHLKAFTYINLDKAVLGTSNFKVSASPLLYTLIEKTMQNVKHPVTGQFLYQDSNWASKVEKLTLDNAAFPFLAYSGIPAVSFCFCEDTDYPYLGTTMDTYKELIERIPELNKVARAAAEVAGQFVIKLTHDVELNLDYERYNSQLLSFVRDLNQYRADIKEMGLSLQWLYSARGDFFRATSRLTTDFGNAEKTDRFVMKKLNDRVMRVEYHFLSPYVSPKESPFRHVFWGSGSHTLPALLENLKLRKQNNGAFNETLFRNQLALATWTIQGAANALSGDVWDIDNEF
PSMA, sequence (Q04609 whole entry): as the sequence (Q04609 whole entry) above

Sequence: CALCEFLG (Synthetic oligopeptiide) [peptide 1, reference compound]
apparent affinity for dimeric PSMA relative to the monomeric isoform (homodimeric PSMA; phage-displayed ELISA, dimer versus monomer): exceeds affinity for the monomeric isoform
binding to PSMA dimer (homodimeric PSMA): efficient binding
binding to PSMA dimer (homodimeric PSMA; listed as Peptide 1): higher affinity to PSMA dimer than peptide 2
binding to PSMA monomer (PSMA monomer): efficient binding
binding to PSMA (PSMA): strong binding

binding to PSMA dimer (homodimeric PSMA): only binds to dimeric PSMA
Sequence: LDCVEVFQNSCDW [peptide 2, 13-mer peptide selected from a disulfide-constrained library; parent of the homolog library]
binding to PSMA monomer (PSMA monomer): fails to bind the monomer with significant affinity
binding to PSMA monomer (PSMA monomer; listed as Peptide 2): does not bind PSMA monomer with appreciable affinity

relative binding affinity to PSMA compared with parent peptide 2 (homodimeric PSMA): higher affinity towards the target
Sequence: SDCVEVFQNSCDW [compound 4, peptide from the homolog shotgun scanning library]

relative binding affinity to PSMA compared with parent peptide 2 (homodimeric PSMA): higher affinity towards the target
phage concentration with binding affinity similar to 20 nM phage displaying parent peptide 2 (homodimeric PSMA; PSMA 1 μg/mL (FIG. 1C)): 0.02 nM
phage concentration with binding affinity similar to 20 nM phage displaying peptide 1 (homodimeric PSMA; PSMA 1 μg/mL (FIG. 1C)): 0.2 nM
fold higher affinity for PSMA compared to parent peptide 2 (homodimeric PSMA; [2]): ≈ 1000 times
fold higher affinity for PSMA than peptide 1 (homodimeric PSMA; [2]): ≈ 100 times
cross-reactivity for binding transferrin receptor (TfR) [1]: no detectable cross-reactivity
Sequence: SECVEVFQNSCDW [peptide 3, peptide from the homolog shotgun scanning library]
